Where “and” joins values, the source holds several entries; their conditions need not be identical. Equal entries are not always repeated.
How the values were obtained:
[1] = target: T1, IkB peptide (SEQ ID NO: 1) (Homo sapiens, UniProt P25963); assay: 96-well screen for phosphopeptide binding proteins, 7-spot IPR plates; details: two steps of normalization, top 9 clones
T1 construct: two phosphoserines in the DSGLDS motif (chemical modification); purchased New England Peptide, Fitchburg Mass; host or cells: chemical synthesis
T1 sequence (P25963 with tags, fused parts or gaps limits assumed): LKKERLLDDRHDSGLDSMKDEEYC
Procedure: (§1) A screen was conducted using 7-spot IPR plates. The 7 spot NPT IPR plates are described in more detail in copending Provisional Application No. 60/301,932 (entitled “Assay Plates, Reader Systems and Methods for Luminescence Test Measurements”, filed on Jun. 29, 2001, hereby incorporated by reference) and particularly in the description of Plate Type D in Example 6.1 (NPT IPR plate) and U.S. application Ser. Nos. 10/185,274 and 10/185,363, filed Jun. 28, 2002, each hereby incorporated by reference. These plates consist of a 96 wells with 7 zones (spots) for the immobilization of proteins or other reagents. Each spot was coated with BSA conjugated to either a single phosphopeptide or multiple phosphopeptides.
(§2) The plates were prepared essentially as described in example 12. The seven spots supported, respectively, the following BSA conjugates IkB, pY992, pY1068, pY1148, Myc, “A”, and “6-P”. “A” refers to a conjugate of BSA with multiple peptides: IkB, pY1148, Myc which were then coupled to BSA. “6-P” refers to a conjugate of BSA with the following multiple peptides: IkB, pY1148, pY992, pY1068, Smad3C.
(§3) For the assay, 4 ul from TnT reaction product described above were added to the coated plate containing 50 μl of binding buffer supplemented with 50 ng/well Ru-Streptavidin. The binding reaction was allowed to proceed at room temperature for 1 hour with constant shaking. […] The ECL signals were measured using an imaging plate reader (IPR). The raw data from the IPR reader was then normalized using two steps of normalization. The first round was based on the 50 lowest values for a given specific spot. These 50 lowest values were averaged and divided into each signal for that spot to generate a signal value which could be compared readily between the peptide-conjugate spots. This was then followed by a second round of normalization using the lowest normalized value for a spot within a well to divide the signals from the other spots. This method provides a means to reduce the signals from proteins which bound non specifically to all the spots within a well. […]

[2] = target: T2, Myc peptide (SEQ ID NO: 4) (Homo sapiens, UniProt P01106); assay: as above; details: two steps of normalization; top 9 clones
T2 construct: phosphothreonine (T58) and phosphoserine (S62) (chemical modification); purchased New England Peptide, Fitchburg Mass; host or cells: chemical synthesis
T2 sequence (P01106 with tags, fused parts or gaps limits assumed): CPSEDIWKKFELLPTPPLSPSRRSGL
Procedure: as §1, §2, §3

[3] = target: T3, EGFR-pY1068 (SEQ ID NO: 7) (Homo sapiens, UniProt P00533); assay: Single-well 4-spot assay for multiple peptide-protein interactions; type: binding; details: 4-spot plate
T3 construct: phosphotyrosine at Tyr1068 (chemical modification); purchased New England Peptide, Fitchburg Mass; host or cells: chemical synthesis
Source text: (§4) Four phosphopeptides and their cognate binding proteins (Table 14) were selected for an integrated assay of multiple peptide-protein interaction in 4-spot Multi-Array plates. The IkBa-24pp peptide and its binding protein, βTRCP, are described in Example 10. […] These phosphotyrosine containing peptides are recognized by different adaptor or effecter proteins of the receptor tyrosine kinase signaling pathway.
(§5) These four peptides were coupled to BSA carrier protein through cystine residue. After purification on PD-10 gel filtration columns, the peptide-BSA conjugates were then deposited on the assay domains of a 4-spot multi-array IPR plate (i.e., in one of the four exposed regions of working electrode defined by the dielectric layer) with an automated micro-dispensing system (Bio-Dot Dispenser, Bio-Dot, Irvine Calif.). […] These plates are dried then used or stored under desiccated conditions. A few hours prior to usage the plates were rehydrated and blocked with 3% BSA in PBS. […] The in vitro translated and biotin-labeled proteins were then assayed in the 4-spot multi-array IPR plates under conditions described in Example 10.

[4] = target: T4, EGFR-pY1148 (SEQ ID NO: 9) (Homo sapiens, UniProt P00533); assay: as above; type: binding; details: 4-spot plate
T4 construct: phosphotyrosine at Tyr1148 (chemical modification); purchased New England Peptide, Fitchburg Mass; host or cells: chemical synthesis
Source text: as §4, §5

Substance | normalized ECL signal, IkBa spot [1] | normalized ECL signal, IkBa spot ([1]; βTRCP positive control) | normalized ECL signal, Myc spot [2] | ECL signal, spot 3 EGFR-pY1068 [3] | ECL signal, spot 2 EGFR-pY1148 [4]
3491843: IMAGE clone protein: βTRCP1 [compound 3491843] | 12 | 23 | 4 and 8 | 24 | 36
3872466: IMAGE clone protein: mCBP [compound 3872466] | – | – | – | 126 | 278

Source: patent publication US7063946B2, “Methods, reagents, kits and apparatus for protein function analysis” (Meso Scale Technologies, LLC., priority 2001, dated 2006)
